Assay results from paper PMC12041282.

Molecular target: ectodomain of the SFTSV Gn glycoprotein (amino acids 20-453), Gn-his (SFTSV)
Assay: SPR

## Recombinant human LRP1 CLII-Fc (Fc fusion)
  Kd: 16.8 nM
